Values quoted from earlier work as cited in paper doi:10.1101/2022.08.17.503475.

Target: Glu14 (UniProt position 14, GAILAEVIGTT)
Assay: NMR
Details: TPP+-bound; alternating access in slow exchange throughout the tested pH range

## EmrE (multidrug transporter EmrE, small multidrug resistance family) (Escherichia coli)
  pKa: 6.8 ± 0.1
